Laboratory results: article PMC3206214 (Molecular cell, 2011)
Each block holds one binder with its values, some of them ahead of it.

What was measured:
Assay in all cases: far-Western, overlay or dot blot
[1] = molecular target: MBP-BSU1 pre-incubated with GST-CDG1 and ATP (Arabidopsis, UniProt Q9LR78 1-793, phosphoserine at 764 (by CDG1))
MBP-BSU1-S764A = molecular target: T1, MBP-BSU1-S764A (Arabidopsis, UniProt Q9LR78 1-793, S764A)
T1 sequence (looked up): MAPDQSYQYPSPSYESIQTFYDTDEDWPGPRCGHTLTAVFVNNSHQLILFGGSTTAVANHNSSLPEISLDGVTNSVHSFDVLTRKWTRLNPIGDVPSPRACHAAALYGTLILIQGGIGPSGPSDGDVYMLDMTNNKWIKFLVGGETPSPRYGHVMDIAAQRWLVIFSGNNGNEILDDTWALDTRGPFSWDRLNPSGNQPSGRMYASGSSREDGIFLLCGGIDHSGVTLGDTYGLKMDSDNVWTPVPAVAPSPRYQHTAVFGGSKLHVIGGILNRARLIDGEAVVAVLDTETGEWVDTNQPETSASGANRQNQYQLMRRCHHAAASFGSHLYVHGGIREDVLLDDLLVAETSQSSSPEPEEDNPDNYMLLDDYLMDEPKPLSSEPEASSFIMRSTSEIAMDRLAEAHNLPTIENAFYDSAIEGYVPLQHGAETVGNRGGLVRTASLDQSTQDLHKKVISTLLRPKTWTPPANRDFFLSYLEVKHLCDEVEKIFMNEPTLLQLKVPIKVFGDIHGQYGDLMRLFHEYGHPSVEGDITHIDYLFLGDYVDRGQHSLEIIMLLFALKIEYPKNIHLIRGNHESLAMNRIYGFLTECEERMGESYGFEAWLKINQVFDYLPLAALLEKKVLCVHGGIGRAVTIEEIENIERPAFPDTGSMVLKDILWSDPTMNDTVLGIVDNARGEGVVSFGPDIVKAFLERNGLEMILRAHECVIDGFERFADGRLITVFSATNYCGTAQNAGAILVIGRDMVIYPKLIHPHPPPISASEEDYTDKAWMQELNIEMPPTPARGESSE

MBP-BSU1 = MBP-BSU1 (Arabidopsis, UniProt Q9LR78 1-793)

binding result [1]: binds
binding result (MBP-BSU1-S764A): binds
B1: GST-BIN2 (natural protein, Arabidopsis, UniProt Q39011 1-380, looked up)
chain: MADDKEMPAAVVDGHDQVTGHIISTTIGGKNGEPKQTISYMAERVVGTGSFGIVFQAKCLETGETVAIKKVLQDRRYKNRELQLMRVMDHPNVVCLKHCFFSTTSKDELFLNLVMEYVPESLYRVLKHYSSANQRMPLVYVKLYMYQIFRGLAYIHNVAGVCHRDLKPQNLLVDPLTHQVKICDFGSAKQLVKGEANISYICSRFYRAPELIFGATEYTTSIDIWSAGCVLAELLLGQPLFPGENAVDQLVEIIKVLGTPTREEIRCMNPHYTDFRFPQIKAHPWHKIFHKRMPPEAIDFASRLLQYSPSLRCTALEACAHPFFDELREPNARLPNGRPFPPLFNFKQEVAGSSPELVNKLIPDHIKRQLGLSFLNQSGT

binding result (MBP-BSU1): binds
B2: GST-CDG1 (natural protein, Arabidopsis, UniProt Q9LSE1 1-432, looked up)
chain: MVSCLCFRPSRKTKLKDKSHKRSIRNQTSSSSAQPAGTAKEVDSSSSQTVVQDSSRYRCQIFSYRELAIATNSFRNESLIGRGGFGTVYKGRLSTGQNIAVKMLDQSGIQGDKEFLVEVLMLSLLHHRNLVHLFGYCAEGDQRLVVYEYMPLGSVEDHLYDLSEGQEALDWKTRMKIALGAAKGLAFLHNEAQPPVIYRDLKTSNILLDHDYKPKLSDFGLAKFGPSDDMSHVSTRVMGTHGYCAPEYANTGKLTLKSDIYSFGVVLLELISGRKALMPSSECVGNQSRYLVHWARPLFLNGRIRQIVDPRLARKGGFSNILLYRGIEVAFLCLAEEANARPSISQVVECLKYIIDHTIRKERRTRRRLLGGNKDGAGTSRSPDETMMRMLEEEEEYVTSEEAIERRRVIVDDARTWAGMNRRGATPPTPTP

binding result (MBP-BSU1): binds
B3: GST-CDG1 pre-incubated with GST-BRI1-K and ATP (natural protein, Arabidopsis, UniProt Q9LSE1 1-432, looked up)
chain: B2 chain
modifications: phosphoserine at 44, 47 and 234 (BRI1 phosphorylation sites, found by mass spectrometry on GST-CDG1-Y147G)
